Laboratory results: patent US20150315280A1 (Chugai, published 2015)

Target: T1, mouse NR 10 (mouse, UniProt Q8K5B1 19-716)
T1 construct: In the proliferation assays it is expressed on Ba/F3 cells together with mouse OSMR, with which it forms the IL-31 receptor; also called mNR 10; IL-31RA
T1 sequence: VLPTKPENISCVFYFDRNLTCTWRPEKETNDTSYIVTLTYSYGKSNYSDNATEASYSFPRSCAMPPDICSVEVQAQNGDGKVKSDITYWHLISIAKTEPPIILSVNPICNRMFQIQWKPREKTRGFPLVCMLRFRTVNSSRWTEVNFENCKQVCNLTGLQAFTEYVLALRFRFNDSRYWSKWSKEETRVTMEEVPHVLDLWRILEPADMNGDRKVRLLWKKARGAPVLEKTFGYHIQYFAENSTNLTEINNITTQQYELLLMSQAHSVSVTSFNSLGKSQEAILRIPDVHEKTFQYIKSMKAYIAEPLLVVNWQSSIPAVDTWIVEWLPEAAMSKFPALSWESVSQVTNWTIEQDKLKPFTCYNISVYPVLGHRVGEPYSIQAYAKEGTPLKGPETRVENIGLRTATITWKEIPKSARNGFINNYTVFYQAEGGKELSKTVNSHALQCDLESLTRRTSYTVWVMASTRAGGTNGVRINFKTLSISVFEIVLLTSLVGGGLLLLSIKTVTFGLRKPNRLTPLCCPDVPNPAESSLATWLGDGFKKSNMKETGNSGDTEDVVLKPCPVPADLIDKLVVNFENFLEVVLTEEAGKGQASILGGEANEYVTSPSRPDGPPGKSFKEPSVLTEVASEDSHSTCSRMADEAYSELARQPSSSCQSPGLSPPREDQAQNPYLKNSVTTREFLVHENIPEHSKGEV
Test: immunohistochemical staining of auricles of chronic dermatitis model mice
Excerpt: The expression of human NR 10 was reported to be enhanced in thickened epidermis of atopic dermatitis patients (Non-patent Document 1). Auricles of the above-described chronic dermatitis model mice were immunohistochemically stained.

- binding result: binds
B1: BM095 in which the constant region was replaced with that of human IgG (antibody, V domains shown)
VH: not shown
VL: LPVLTQPPSVSVAPGQTARITCGGNNIGSKTVYWYQQEPGQAPVLVVYDDTDRPAGIPERFSGANSGNTATLTISRVEAGDEADYYCQVWDSSTDHGVFGGGTKLTVLG
